# ± gives the standard deviation.
# Assay: protein stability index of a GFP-peptide fusion (GPS, HEK-293T) (PSI 1-6); higher = more stable
# [1] = treatment: DMSO, c terminus: a fixed tail appended
# [2] = treatment: MLN4924 1 uM, 8 h, c terminus: a fixed tail appended
# 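Also: 24-mer peptide tiles fused after GFP, lentivirally expressed, FACS-sorted into six equal bins by GFP/DsRed ratio, decoded by Illumina sequencing, PSI is the read-weighted mean bin number.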
sequence,measurement,setting,value
SRWSEASRAILQRVQAAAFGPGQT [ALKBH7],protein stability index,[1],3.01 ± 0.38
same,protein stability index,[2],3.19 ± 0.39
QEELTRINQSFTGAERKAALCELL [IQUB],protein stability index,[1],3.41 ± 0.28
same,protein stability index,[2],3.63 ± 0.17
LSTDMVHAASDPSSSSGRLSEPDP [SMOC2],protein stability index,[1],5.29 ± 0.24
same,protein stability index,[2],5.38 ± 0.15
LTDDDVVDWDEEYPPQMGEEYSQI [BTBD10],protein stability index,[1],5.15 ± 0.11
same,protein stability index,[2],5.22 ± 0.19
PEPPAAVDFLEPDSGTCPEVDEEG [FCHO1],protein stability index,[1],5.48 ± 0.26
same,protein stability index,[2],5.54 ± 0.21
QVLRFYAIWDDTDSMYGECRTYII [EFHC1],protein stability index,[1],2.91 ± 1
same,protein stability index,[2],2.58 ± 0.47
AEAAPELDLFAMKPPETSVPVVTP [SNAP91],protein stability index,[1],4.89 ± 0.15
same,protein stability index,[2],4.98 ± 0.1
PREALSRLQELCHGWLRPEMRTKE [ZNF263],protein stability index,[1],3.31 ± 0.23
same,protein stability index,[2],3.55 ± 0.28
WEISDDYPSLQAMGWFNNEVGSMK [CRYBA1],protein stability index,[1],3.19 ± 0.24
same,protein stability index,[2],3.42 ± 0.38
FASLRPSEPFLTPYLLGPDKNLTE [SLC19A2],protein stability index,[1],2.59 ± 0.48
same,protein stability index,[2],3.17 ± 0.62
DTRSGFWYVCRTQGVEGDHCVTSD [TRIM35],protein stability index,[1],2.89 ± 0.31
same,protein stability index,[2],3.08 ± 0.34
LTVVCAAGAEPLPRNGDQWHEIRQ [WEE1],protein stability index,[1],2.55 ± 0.34
same,protein stability index,[2],2.49 ± 0.4
PKAQLSGYAVEATRNQSQLQRFL [FBF1],protein stability index,"treatment: DMSO, c terminus: native",4.13 ± 0.19
same,protein stability index,"treatment: MLN4924 1 uM, 8 h, c terminus: native",4.21 ± 0.38
EFVVRCFACPSQALFFKNIMNIID [KCNA4],protein stability index,[1],2.4 ± 0.78
same,protein stability index,[2],2.12 ± 0.55
QEKKILELEKLAEKNIILEEKIQV [MTUS2],protein stability index,[1],4.3 ± 0.28
same,protein stability index,[2],4.29 ± 0.17
QLLADEKMKQLTEETEVLAHEIER [TRIM35],protein stability index,[1],5.09 ± 0.46
same,protein stability index,[2],5.21 ± 0.21
NRFRVEISFHFEVTNHNIRLFEDV [TRIM43],protein stability index,[1],2.73 ± 0.5
same,protein stability index,[2],2.84 ± 0.22
HDYHGILVDEEEKVLIQKNLGPKS [ADD1],protein stability index,[1],4.79 ± 0.33
same,protein stability index,[2],4.9 ± 0.075
CVADNTNLYVFGGYNPDYDESGGP [KLHDC10],protein stability index,[1],3.26 ± 0.14
same,protein stability index,[2],3.18 ± 0.34
TVEKPGGKKVAVVLMDTQGAFDSQ [ATL3],protein stability index,[1],4.18 ± 0.13
same,protein stability index,[2],4.16 ± 0.22
AGYYELAQVLLAMHANVEDRGIKG [ANKRD17],protein stability index,[1],2.02 ± 0.21
same,protein stability index,[2],1.96 ± 0.34
MDVERQETPEWLDSDSCQKCDQPF [WDFY2],protein stability index,[1],5.11 ± 0.25
same,protein stability index,[2],5.08 ± 0.15
GSQRARVVNTDHGSPEQLQIPVTD [SDE2],protein stability index,[1],5.06 ± 0.22
same,protein stability index,[2],4.98 ± 0.34
GNTIALFFRSLLPNYTMEGERPEE [TCF25],protein stability index,[1],2.17 ± 0.62
same,protein stability index,[2],2.72 ± 0.21
PSHHPTDPVELRRLNFQTPGMASH [PTPRD],protein stability index,[1],3.79 ± 0.13
same,protein stability index,[2],3.94 ± 0.34
DITVSVSTSFLPELSSVHPPHYFF [FBXO3],protein stability index,[1],2.79 ± 0.48
same,protein stability index,[2],2.63 ± 0.58
FTCDLQHTETGEEVLRMCVAVKKK [VPS39],protein stability index,[1],2.84 ± 0.3
same,protein stability index,[2],2.96 ± 0.4
TEIAEQEGNQKGEQATSLAILRVI [KCNA1],protein stability index,[1],3.75 ± 0.41
same,protein stability index,[2],3.56 ± 0.2
HAASDPSSSSGRLSEPDPSHTLEE [SMOC2],protein stability index,[1],5.31 ± 0.29
same,protein stability index,[2],5.43 ± 0.15
MASSSTVPLGFHYETKYVVLSYLG [BCL2L13],protein stability index,[1],2.64 ± 0.48
same,protein stability index,[2],2.33 ± 0.45
GGTLAEFIQKRCNSLLEEETILHF [NEK8],protein stability index,[1],1.97 ± 0.24
same,protein stability index,[2],1.99 ± 0.43
VLKAHNEYRQKHGVPPLKLCKNLN [GLIPR2],protein stability index,[1],2.92 ± 0.17
same,protein stability index,[2],3.33 ± 0.18
ILVYDIANRWSFDGIDRWIKEIDE [RAB40B],protein stability index,[1],2.11 ± 0.57
same,protein stability index,[2],1.93 ± 0.31
IFATKPHVLPAVLAEVAPVVTTEH [PYCR3],protein stability index,[1],3.33 ± 0.38
same,protein stability index,[2],3.4 ± 0.21
AKGIPQRAPPKRKRKRVKQRINTY [PCMTD1],protein stability index,[1],4.41 ± 0.14
same,protein stability index,[2],4.58 ± 0.16
GAFRKGKSFILDFMLRYLYSQKES [ATL3],protein stability index,[1],2.3 ± 0.42
same,protein stability index,[2],2.22 ± 0.49
IEQQQIRNALENIRKEMKLLEQAG [CRYL1],protein stability index,[1],3.84 ± 0.17
same,protein stability index,[2],4.27 ± 0.62
KCKPSLPAEAEGAAQELENQMKER [TMEM120A],protein stability index,[1],5.42 ± 0.19
same,protein stability index,[2],5.49 ± 0.2
VVKLLVSHGANVNHTTVTNSTPLR [FEM1B],protein stability index,[1],2.25 ± 0.26
same,protein stability index,[2],2.29 ± 0.27
NGTKADGKDAKTTNGHGGEAAEGK [TRIM29],protein stability index,[1],5.48 ± 0.2
same,protein stability index,[2],5.55 ± 0.12
TEKQNFLLFDMTTHPVTNTTEKQR [GOLPH3L],protein stability index,[1],4.31 ± 0.18
same,protein stability index,[2],4.4 ± 0.32
MYSVEITVEKDKVTGETRVLSSTT [PALM],protein stability index,[1],2.93 ± 0.21
same,protein stability index,[2],3.19 ± 0.16
KMNFSTLRNIQGLFAPLKLQMEFK [POMP],protein stability index,[1],2.2 ± 0.36
same,protein stability index,[2],2.02 ± 0.098
LRTLDKKTFYKTADISQMLVCTAD [TAF7L],protein stability index,[1],2.61 ± 0.32
same,protein stability index,[2],2.65 ± 0.41
TTNVGRYPVGRFPSLHVVKVLLDC [FEM1A],protein stability index,[1],2.52 ± 0.4
same,protein stability index,[2],2.48 ± 0.27

# Reference: the supplement of paper PMC10567573
